What was measured:
[1] = biological target: T1, properdin (purified human complement component) (human, UniProt P27918 28-469); experiment: solid-phase saturation binding ELISA, S20NS coated (10 ng/well), properdin titrated
T1 construct: Bought purified protein; also called fP

[2] = biological target: T1, properdin (purified human complement …); experiment: ELISA, coated CAT, properdin in solution, detected with goat α-properdin Ab

T1 sequence (P27918 28-469 limits assumed): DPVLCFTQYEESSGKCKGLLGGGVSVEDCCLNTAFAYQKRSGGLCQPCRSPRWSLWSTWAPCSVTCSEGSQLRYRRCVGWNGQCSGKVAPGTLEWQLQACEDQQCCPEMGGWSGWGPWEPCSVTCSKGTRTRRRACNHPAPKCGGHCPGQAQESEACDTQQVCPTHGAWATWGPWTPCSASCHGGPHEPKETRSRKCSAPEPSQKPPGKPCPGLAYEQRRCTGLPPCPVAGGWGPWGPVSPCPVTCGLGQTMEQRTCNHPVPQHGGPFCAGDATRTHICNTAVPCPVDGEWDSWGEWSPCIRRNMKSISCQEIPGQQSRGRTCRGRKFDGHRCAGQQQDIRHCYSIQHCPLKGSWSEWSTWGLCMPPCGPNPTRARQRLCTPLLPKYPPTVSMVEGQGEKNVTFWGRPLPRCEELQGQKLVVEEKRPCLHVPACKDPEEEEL

B1: S20NS (Salp20 protein containing C-terminal V5-epitope and 6x-histidine tags) (other)
chain: SEDGLEQDSKVETTTQNLYERHYRNNSGLCGAQYRNSSHAEAVYNCTLSLLPPKVNETWEGIRHRINKSIPEFVRLMCNFSVVMPEDFYLVYMGSNGNSYSEEDEESTDTDKDSKTGSSAAVEVTEKLILKAEENCTAHITGWTTEAPTTLEPTETQFEAIS
modifications: multiple N- and O-linked glycans (insect cell expressed)
notes: Recombinant protein secreted from stably transfected High Five insect cells and purified; also called I. scapularis salivary protein 20
- Kd [1]: 0.669 nM

B2: chloramphenicol acetyl-transferase protein containing C-terminal V5-epitope and 6x-histidine tags (CAT) (enzyme)
chain: MEKKITGYTTVDISQWHRKEHFEAFQSVAQCTYNQTVQLDITAFLKTVKKNKHKFYPAFIHILARLMNAHPEFRMAMKDGELVIWDSVHPCYTVFHEQTETFSSLWSEYHDDFRQFLHIYSQDVACYGENLAYFPKGFIENMFFVSANPWVSFTSFDLNVANMDNFFAPVFTMGKYYTQGDKVLMPLAIQVHHAVCDGFHVGRMLNELQQYCDEWQGGA
notes: Negative control protein expressed from the same expression vector as S20NS in High Five cells
- binding result [2]: no binding

— patent US20110014218A1 (UNIVERSITY OF NORTH CAROLINA AT CHAPEL HILL, published 2011)
